Experimental findings from patent EP3411068A2 (dated 2018) are described below.

The target of assay [1] is T1, mouse PDL1 expressed on B16-F10 cells (mouse, UniProt Q9EP73 19-290).
T1 construct: whole, on cells; also called B16-F10 (mPDLl); cell expressed mouse PDL1
Description: flow cytometry on B16-F10 cells.

Assay [2] concerns the target T2, human VEGFR2 expressed on KDR-PAE cells (human, UniProt P35968 20-1356).
T2 construct: whole, on cells; also called PAE-KDR; KDR-PAE (hVEGFR2)
Description: flow cytometry on KDR-PAE cells. On the technique in general: A flow cytometer gives signals particle by particle.

Assay [3] addresses T3, human PDL1 expressed on MDA-MB-231 cells (human, UniProt Q9NZQ7 19-290).
T3 construct: whole, on cells; also called cell expressed human PDL1
Kind of assay: flow cytometry on MDA-MB-231 cells.

In assay [4] the target is T4, human VEGFR2-Fc (human, UniProt P35968 20-764).
T4 construct: also called hVEGFR2; recombinant human VEGFR2
Description: blocking ELISA, hVEGFR2-Fc binding to coated hVEGF.

Assay [5] has as its target T4, human VEGFR2-Fc. Kind of assay: dose response ELISA, antigen-Fc coated, HRP anti-human Fab. (In an ELISA, binding on a coated surface is turned into a signal by an enzyme label.)
The target in assay [6] is T5, human PDL1-Fc (human, UniProt Q9NZQ7 19-238).
T5 construct: also called hPDL1; hPDLl
The assay is described as above.

For assay [7], the target named is T6, mouse PDL1-Fc (mouse, UniProt Q9EP73 19-239, limits assumed).
T6 construct: also called mPDL1; mPDLl
The assay is described as above.

In assay [8] the target is T5, human PDL1-Fc. Description: blocking ELISA, biotin hPDL1-Fc binding to immobilized hPD1.
The target in assay [9] is T6, mouse PDL1-Fc. Description: blocking ELISA, biotin mPDL1-Fc binding to immobilized mPD1.
Assay [10] has as its target T5, human PDL1-Fc. Description: SPR (Biacore), hPDL1-Fc immobilized on CM5, antibody injected, 1:1 Langmuir. (In general: Surface plasmon resonance follows binding to a sensor surface in real time, without labels.)
The target of assay [11] is T4, human VEGFR2-Fc. Kind of assay: SPR (Biacore), hVEGFR-Fc immobilized on CM5, antibody injected, 1:1 Langmuir.
Assay [12] has as its target T7, mouse VEGFR2-Fc (mouse, UniProt P35918 20-762).
T7 construct: also called mVEGFR2; recombinant mouse VEGFR2
Description: blocking ELISA, mVEGFR2-Fc binding to coated mVEGF.

The target of assay [13] is T7, mouse VEGFR2-Fc. Description: dose response ELISA, antigen-Fc coated, HRP anti-human Fab.
Assay [14] addresses T4, human VEGFR2-Fc. Kind of assay: binding assay as in Example 2 (Figure 42).
The target in assay [15] is T5, human PDL1-Fc. Kind of assay: binding assay as in Example 2 (Figure 42).

T2 sequence (P35968 20-1356): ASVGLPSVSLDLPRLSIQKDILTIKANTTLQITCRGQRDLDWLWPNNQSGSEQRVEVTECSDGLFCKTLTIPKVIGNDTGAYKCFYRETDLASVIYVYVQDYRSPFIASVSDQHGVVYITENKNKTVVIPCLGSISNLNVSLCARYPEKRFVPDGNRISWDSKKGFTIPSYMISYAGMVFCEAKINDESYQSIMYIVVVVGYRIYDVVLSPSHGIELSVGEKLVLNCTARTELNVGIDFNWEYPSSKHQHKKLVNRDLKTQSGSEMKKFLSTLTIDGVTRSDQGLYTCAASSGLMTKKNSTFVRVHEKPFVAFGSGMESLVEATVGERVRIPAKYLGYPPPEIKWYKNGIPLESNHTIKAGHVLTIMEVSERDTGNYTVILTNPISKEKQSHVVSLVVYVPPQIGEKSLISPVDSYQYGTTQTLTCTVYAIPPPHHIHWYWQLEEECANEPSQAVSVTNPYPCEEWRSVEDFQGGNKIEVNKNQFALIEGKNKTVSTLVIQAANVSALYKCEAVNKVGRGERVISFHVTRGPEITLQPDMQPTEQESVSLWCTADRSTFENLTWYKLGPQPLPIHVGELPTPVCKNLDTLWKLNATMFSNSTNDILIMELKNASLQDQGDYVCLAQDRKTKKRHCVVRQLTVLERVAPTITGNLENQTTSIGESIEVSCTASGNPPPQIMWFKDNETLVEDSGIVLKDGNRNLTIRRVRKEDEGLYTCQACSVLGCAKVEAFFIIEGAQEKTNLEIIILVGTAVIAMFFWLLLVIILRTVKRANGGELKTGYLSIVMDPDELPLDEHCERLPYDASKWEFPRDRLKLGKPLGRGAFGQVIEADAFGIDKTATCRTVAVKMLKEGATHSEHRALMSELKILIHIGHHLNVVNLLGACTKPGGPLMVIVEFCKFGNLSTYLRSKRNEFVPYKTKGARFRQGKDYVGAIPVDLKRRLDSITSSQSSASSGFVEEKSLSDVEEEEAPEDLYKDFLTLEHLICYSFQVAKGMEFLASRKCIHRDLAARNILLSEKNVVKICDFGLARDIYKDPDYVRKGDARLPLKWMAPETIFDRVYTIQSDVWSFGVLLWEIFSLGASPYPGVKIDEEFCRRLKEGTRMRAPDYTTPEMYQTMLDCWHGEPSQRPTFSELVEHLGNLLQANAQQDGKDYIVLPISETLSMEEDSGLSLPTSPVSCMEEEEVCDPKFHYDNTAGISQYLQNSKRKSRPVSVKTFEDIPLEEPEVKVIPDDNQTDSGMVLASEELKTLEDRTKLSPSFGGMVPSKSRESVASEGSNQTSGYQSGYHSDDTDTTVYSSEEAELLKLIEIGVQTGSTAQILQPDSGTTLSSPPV
T6 sequence (Q9EP73 19-239 limits assumed): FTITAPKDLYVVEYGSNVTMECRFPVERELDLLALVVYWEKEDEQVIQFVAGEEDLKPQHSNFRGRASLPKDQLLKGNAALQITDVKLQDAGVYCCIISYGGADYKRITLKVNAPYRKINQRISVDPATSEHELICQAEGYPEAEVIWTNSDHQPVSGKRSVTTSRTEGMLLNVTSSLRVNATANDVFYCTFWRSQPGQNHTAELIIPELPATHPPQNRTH
T7 sequence (P35918 20-762 limits assumed): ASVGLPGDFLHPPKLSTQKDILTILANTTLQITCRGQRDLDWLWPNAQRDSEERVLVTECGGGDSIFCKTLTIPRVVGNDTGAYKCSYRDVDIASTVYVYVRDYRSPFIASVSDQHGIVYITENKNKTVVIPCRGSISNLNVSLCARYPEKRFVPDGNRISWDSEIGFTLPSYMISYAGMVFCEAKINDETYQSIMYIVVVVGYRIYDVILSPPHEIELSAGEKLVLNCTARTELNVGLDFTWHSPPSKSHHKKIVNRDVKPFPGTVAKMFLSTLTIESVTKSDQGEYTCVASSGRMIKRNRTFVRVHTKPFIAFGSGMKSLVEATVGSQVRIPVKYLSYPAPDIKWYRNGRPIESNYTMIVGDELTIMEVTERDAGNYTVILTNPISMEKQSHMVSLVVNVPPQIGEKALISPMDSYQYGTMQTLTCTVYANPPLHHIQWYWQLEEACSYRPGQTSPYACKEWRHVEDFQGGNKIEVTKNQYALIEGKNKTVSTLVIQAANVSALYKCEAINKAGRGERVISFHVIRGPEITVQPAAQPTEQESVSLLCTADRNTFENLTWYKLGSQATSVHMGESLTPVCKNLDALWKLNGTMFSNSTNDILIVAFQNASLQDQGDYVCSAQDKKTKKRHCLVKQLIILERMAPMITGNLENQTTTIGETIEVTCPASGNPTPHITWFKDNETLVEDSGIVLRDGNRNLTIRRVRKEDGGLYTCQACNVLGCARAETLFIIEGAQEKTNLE
T5 sequence (Q9NZQ7 19-238 limits assumed): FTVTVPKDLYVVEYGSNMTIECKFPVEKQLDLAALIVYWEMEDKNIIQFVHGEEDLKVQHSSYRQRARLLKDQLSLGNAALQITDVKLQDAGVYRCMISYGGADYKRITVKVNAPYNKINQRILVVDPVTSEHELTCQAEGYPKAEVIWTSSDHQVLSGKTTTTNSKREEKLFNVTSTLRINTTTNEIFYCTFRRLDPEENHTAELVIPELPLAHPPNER
T4 sequence (P35968 20-764 limits assumed): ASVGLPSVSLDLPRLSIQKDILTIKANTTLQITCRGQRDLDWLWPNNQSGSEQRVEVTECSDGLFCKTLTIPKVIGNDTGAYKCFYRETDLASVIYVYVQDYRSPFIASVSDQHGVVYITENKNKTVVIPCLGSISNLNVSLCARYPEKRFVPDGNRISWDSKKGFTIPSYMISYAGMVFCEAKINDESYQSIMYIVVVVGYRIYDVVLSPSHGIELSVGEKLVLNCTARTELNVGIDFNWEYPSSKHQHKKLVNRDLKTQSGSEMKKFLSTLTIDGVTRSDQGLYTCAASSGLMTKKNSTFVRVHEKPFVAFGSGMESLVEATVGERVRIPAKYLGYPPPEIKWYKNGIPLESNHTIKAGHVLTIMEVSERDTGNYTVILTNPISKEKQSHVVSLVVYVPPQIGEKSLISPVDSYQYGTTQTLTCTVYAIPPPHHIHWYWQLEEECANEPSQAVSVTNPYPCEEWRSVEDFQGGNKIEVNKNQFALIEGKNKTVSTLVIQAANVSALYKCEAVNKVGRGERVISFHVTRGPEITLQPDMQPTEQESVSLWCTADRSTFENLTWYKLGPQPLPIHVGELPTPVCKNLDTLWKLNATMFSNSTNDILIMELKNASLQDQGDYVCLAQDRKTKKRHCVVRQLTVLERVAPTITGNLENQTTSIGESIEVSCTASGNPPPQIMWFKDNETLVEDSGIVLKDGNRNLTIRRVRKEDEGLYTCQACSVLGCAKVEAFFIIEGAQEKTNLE
T3 sequence (Q9NZQ7 19-290): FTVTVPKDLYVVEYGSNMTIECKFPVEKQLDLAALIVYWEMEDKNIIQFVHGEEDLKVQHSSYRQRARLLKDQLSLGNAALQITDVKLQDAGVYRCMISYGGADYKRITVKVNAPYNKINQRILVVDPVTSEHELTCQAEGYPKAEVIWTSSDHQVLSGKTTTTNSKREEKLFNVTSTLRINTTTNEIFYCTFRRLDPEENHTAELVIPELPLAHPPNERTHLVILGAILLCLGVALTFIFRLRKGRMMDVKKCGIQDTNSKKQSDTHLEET

B1: BsAb (A1-A8)-LALA (bispecific antibody, human IgG1, lambda)
heavy: not shown
light: QSVLTQPPSVSVSPGQTASITCSGEKLGDEYASWYQQKPGQSPVLVIYQDNKRPSGIPERFSGSNSGNTATLTISGTQAMDEADYYCQAWDSSTLLFGGGTKLTVLGQPKAAPSVTLFPPSSEELQANKATLVCLISDFYPGAVTVAWKADSSPVKAGVETTKPSKQSNNKYAASSYLSLTPEQWKSHRSYSCQVTHEGSTVEKTVAPTECS
notes: LALA version: leucines 234 and 235 of the IgG1 CH2 mutated to alanine; also called bi-specific antibody A1-A8; A18
As for B1, the EC50 in [1] worked out at 113 pM; in assay [2] it was 779 pM; in [3] it was 402 pM; with human VEGFR2-Fc [5], 128 pM; in the assay with human PDL1-Fc [6], 88 pM; with mouse PDL1-Fc [7], 160 pM. The half-maximal inhibitory concentration (IC50) in the assay with human VEGFR2-Fc [4] is 1190 pM; with human PDL1-Fc [8], 2510 pM; with mouse PDL1-Fc [9], 3200 pM. Also, the Kd in the assay with human PDL1-Fc [10] is about 3.2 pM; in the assay with human VEGFR2-Fc [11], about 200 pM.

B2: B1C4A7 (antibody, human IgG1, kappa, V domains shown)
VH: EVQLLESGGGLVQPGGSLRLSCAASGFTFSWYVMGWVRQAPGKGLEWVSSIYPQGGATSYADSVKGRFTISRDNSKNTLYLQMNSLRAEDTAVYYCARGNYFDYWGQGTLVTVSS
VL: DIQMTQSPGTLSLSPGEGATLSCRASQSVSSNYFGWYQQKPGQAPRLLIYGASSRATGIPDRFSGSGSGTDFTLTISRLEPEDSAVYYCQQFDSLPLTFGGGTKVEIKR
notes: Parental mono-specific anti-VEGFR2 IgG1; also called anti-VEGFR2 antibody B1C4A7
As for B2, the EC50 was 522 pM in [2], 107 pM with human VEGFR2-Fc [5] and 466 pM in the assay with mouse VEGFR2-Fc [13]. For the same molecule, the IC50 with human VEGFR2-Fc [4] came to 1720 pM; in the assay with mouse VEGFR2-Fc [12], 973 pM. Also, in the assay with human VEGFR2-Fc [11], the Kd came out at 52 pM.

B3: BsAb (A7-A8)-LALA (bispecific antibody, human IgG1, kappa)
heavy: not shown
light: DIQMTQSPGTLSLSPGEGATLSCRASQSVSSNYFGWYQQKPGQAPRLLIYGASSRATGIPDRFSGSGSGTDFTLTISRLEPEDSAVYYCQQFDSLPLTFGGGTKVEIKRTVAAPSVFIFPPSDEQLKSGTASVVCLLNNFYPREAKVQWKVDNALQSGNSQESVTEQDSKDSTYSLSSTLTLSKADYEKHKVYACEVTHQGLSSPVTKSFNRGEC
notes: LALA version: leucines 234 and 235 of the IgG1 CH2 mutated to alanine; also called bi-specific antibody A7-A8
For B3, the EC50 in assay [1] stood at 122 pM; in [2], 533 pM; in [3], 223 pM; with human VEGFR2-Fc [5], 128 pM; in the assay with mouse VEGFR2-Fc [13], 598 pM; in the assay with human PDL1-Fc [6] it was 79 pM. The molecule further displayed an EC50 with mouse PDL1-Fc [7] of 137 pM. The IC50 with human VEGFR2-Fc [4] amounted to 1290 pM; with mouse VEGFR2-Fc [12], 801 pM; in the assay with human PDL1-Fc [8], 2510 pM; in the assay with mouse PDL1-Fc [9], 5590 pM. For the same molecule, the Kd was about 1.2 pM with human PDL1-Fc [10] and about 47 pM in the assay with human VEGFR2-Fc [11].

B4: BsAb (D7A8-B1A1) (bispecific antibody, human IgG1, lambda, L234A L235A)
heavy: not shown
light: QSALTQPASVSGSPGQSITISCTGTSSDVGAYNYVSWYQQHPGKAPKLMIYDVSNRPSGVSNRFSGSKSGNTASLTISGLQAEDEADYYCSSYTSSSTRVFGTGTKVTVLGQPKAAPSVTLFPPSSEELQANKATLVCLISDFYPGAVTVAWKADSSPVKAGVETTKPSKQSNNKYAASSYLSLTPEQWKSHRSYSCQVTHEGSTVEKTVAPTECS
Consider B4, for which the binding result with human VEGFR2-Fc [14] and with human PDL1-Fc [15] was “binds” each time.

B5: BsAb (D7A8-B1A1)_30 (bispecific antibody, human IgG1, lambda, L234A L235A)
heavy: not shown
light: QSALTQPASVSGSPGQSITISCTGTSSDVGAYNYVSWYQQHPGKAPKLMIYDVSNRPSGVSNRFSGSKSGNTASLTISGLQAEDEADYYCSSYTSSSTRVFGTGTKVTVLGQPKAAPSVTLFPPSSEELQANKATLVCLISDFYPGAVTVAWKADSSPVKAGVETTKPSKQSNNKYAASSYLSLTPEQWKSHRSYSCQVTHEGSTVEKTVAPTECS
notes: Variant of BsAb (D7A8-B1A1), apparently with the 30GS linker
Turning to B5, the binding result with human VEGFR2-Fc [14] and with human PDL1-Fc [15] was “binds” each time.

B6: BsAb (D7A8-B1A1)_30cc (bispecific antibody, human IgG1, lambda, L234A L235A)
heavy: not shown
light: QSALTQPASVSGSPGQSITISCTGTSSDVGAYNYVSWYQQHPGKAPKLMIYDVSNRPSGVSNRFSGSKSGNTASLTISGLQAEDEADYYCSSYTSSSTRVFGTGTKVTVLGQPKAAPSVTLFPPSSEELQANKATLVCLISDFYPGAVTVAWKADSSPVKAGVETTKPSKQSNNKYAASSYLSLTPEQWKSHRSYSCQVTHEGSTVEKTVAPTECS
notes: Variant of BsAb (D7A8-B1A1), apparently with the 30GS linker and an added disulfide bond in the scFv; also called BsAb (D7A8-BlAl)_30cc
With B6, the binding result in the assay with human VEGFR2-Fc [14] and in the assay with human PDL1-Fc [15] was “binds” each time.

B7: BsAb (A11-B1A1) (bispecific antibody, human IgG1, kappa, L234A L235A)
heavy: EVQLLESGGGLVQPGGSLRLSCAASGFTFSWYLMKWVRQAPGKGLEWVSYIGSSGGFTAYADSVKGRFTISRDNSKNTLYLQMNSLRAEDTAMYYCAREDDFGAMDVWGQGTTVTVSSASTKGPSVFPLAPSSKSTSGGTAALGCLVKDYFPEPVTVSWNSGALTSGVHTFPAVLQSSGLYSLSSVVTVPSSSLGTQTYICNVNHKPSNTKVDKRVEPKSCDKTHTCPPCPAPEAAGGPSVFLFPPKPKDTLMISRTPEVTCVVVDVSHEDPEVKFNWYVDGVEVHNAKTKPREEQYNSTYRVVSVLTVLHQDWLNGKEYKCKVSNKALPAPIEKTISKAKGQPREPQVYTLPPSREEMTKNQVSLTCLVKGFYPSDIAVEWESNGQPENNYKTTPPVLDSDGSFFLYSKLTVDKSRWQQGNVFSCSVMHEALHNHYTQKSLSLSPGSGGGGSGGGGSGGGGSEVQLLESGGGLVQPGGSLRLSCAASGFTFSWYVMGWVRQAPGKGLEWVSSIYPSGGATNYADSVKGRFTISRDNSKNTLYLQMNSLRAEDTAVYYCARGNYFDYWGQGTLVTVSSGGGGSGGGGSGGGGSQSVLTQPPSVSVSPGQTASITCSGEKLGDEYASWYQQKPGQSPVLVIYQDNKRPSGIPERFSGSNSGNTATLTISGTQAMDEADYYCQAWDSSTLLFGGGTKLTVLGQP
light: DIQMTQSPSSLSASVGDRVTITCRASQTVSKYFNWFQQKPGEAPKLLIYATSTLQSGVPSRFSGSGYGTEFTLTISSLQPEDFATYYCQQSYTTPWTFGQGTKVEIKRTVAAPSVFIFPPSDEQLKSGTASVVCLLNNFYPREAKVQWKVDNALQSGNSQESVTEQDSKDSTYSLSSTLTLSKADYEKHKVYACEVTHQGLSSPVTKSFNRGEC
For B7, the binding result in the assay with human VEGFR2-Fc [14] and in the assay with human PDL1-Fc [15] was “binds” each time.

B8: BsAb (A11-B1A1)_30 (bispecific antibody, human IgG1, kappa, L234A L235A)
heavy: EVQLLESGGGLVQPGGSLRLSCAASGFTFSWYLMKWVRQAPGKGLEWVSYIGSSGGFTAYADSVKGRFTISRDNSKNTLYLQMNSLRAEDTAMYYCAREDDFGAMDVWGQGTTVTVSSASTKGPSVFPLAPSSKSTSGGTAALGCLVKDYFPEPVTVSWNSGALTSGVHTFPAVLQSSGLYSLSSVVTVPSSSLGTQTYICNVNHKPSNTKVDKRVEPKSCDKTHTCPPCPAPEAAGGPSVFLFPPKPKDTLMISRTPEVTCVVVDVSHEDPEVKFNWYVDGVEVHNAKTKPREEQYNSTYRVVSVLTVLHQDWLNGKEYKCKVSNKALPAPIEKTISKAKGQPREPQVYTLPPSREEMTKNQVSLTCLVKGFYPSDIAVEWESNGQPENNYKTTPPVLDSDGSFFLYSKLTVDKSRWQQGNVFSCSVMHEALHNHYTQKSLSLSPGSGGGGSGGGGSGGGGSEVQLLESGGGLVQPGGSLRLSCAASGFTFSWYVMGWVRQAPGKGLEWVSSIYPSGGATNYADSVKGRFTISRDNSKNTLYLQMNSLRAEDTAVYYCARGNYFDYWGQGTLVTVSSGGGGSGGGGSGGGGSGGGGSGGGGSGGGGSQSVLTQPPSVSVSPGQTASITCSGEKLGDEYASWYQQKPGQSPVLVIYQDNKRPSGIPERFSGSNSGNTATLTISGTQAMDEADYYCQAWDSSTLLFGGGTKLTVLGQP
light: DIQMTQSPSSLSASVGDRVTITCRASQTVSKYFNWFQQKPGEAPKLLIYATSTLQSGVPSRFSGSGYGTEFTLTISSLQPEDFATYYCQQSYTTPWTFGQGTKVEIKRTVAAPSVFIFPPSDEQLKSGTASVVCLLNNFYPREAKVQWKVDNALQSGNSQESVTEQDSKDSTYSLSSTLTLSKADYEKHKVYACEVTHQGLSSPVTKSFNRGEC
B8: the binding result in the assay with human VEGFR2-Fc [14] and with human PDL1-Fc [15] was “binds” throughout.

B9: BsAb (A11-B1A1)_30cc (bispecific antibody, human IgG1, kappa, L234A L235A)
heavy: not shown
light: DIQMTQSPSSLSASVGDRVTITCRASQTVSKYFNWFQQKPGEAPKLLIYATSTLQSGVPSRFSGSGYGTEFTLTISSLQPEDFATYYCQQSYTTPWTFGQGTKVEIKRTVAAPSVFIFPPSDEQLKSGTASVVCLLNNFYPREAKVQWKVDNALQSGNSQESVTEQDSKDSTYSLSSTLTLSKADYEKHKVYACEVTHQGLSSPVTKSFNRGEC
notes: Variant of BsAb (A11-B1A1), apparently with the 30GS linker and an added disulfide bond in the scFv; also called BsAb (Al l-BlAl)_30cc
Turning to B9, the binding result with human VEGFR2-Fc [14] and in the assay with human PDL1-Fc [15] was “binds” in each case.

A word on the EC50: it is the concentration needed to bring the measured effect to its halfway point. A high value points to weaker potency. Broadly, the IC50 is the concentration at which inhibition is half-maximal. A low value points to inhibition by little substance. A word on the Kd: it is the free concentration of one partner at which half of the binding sites on the other are occupied at equilibrium, for simple one-to-one binding.
